B1: ILP1 split-YFP fusion for BiFC (ILP1-nYFP and ILP1-cYFP) (natural protein)
chain: MGSNRPKNFRRRGDDGGDEIDGKVATPSSKPTSTLSSSKPKTLSASAPKKKLLSFADDEEEEEDGAPRVTIKPKNGRDRVKSSSRLGVSGSSHRHSSTKERRPASSNVLPQAGSYSKEALLELQKNTRTLPYSRSSANAEPKVVLKGLIKPPQDHEQQSLKDVVKQVSDLDFDEEGEEEQHEDAFADQAAIIRAKKERMRQSRSAPAPDYISLDGGIVNHSAVEGVSDEDADFQGIFVGPRPQKDDKKGVFDFGDENPTAKETTTSSIYEDEDEEDKLWEEEQFKKGIGKRMDEGSHRTVTSNGIGVPLHSKQQTLPQQQPQMYAYHAGTPMPNVSVAPTIGPATSVDTLPMSQQAELAKKALKDNVKKLKESHAKTLSSLTKTDENLTASLMSITALESSLSAAGDKYVFMQKLRDFISVICDFMQNKGSLIEEIEDQMKELNEKHALSILERRIADNNDEMIELGAAVKAAMTVLNKHGSSSSVIAAATGAALAASTSIRQQMNQPVKLDEFGRDENLQKRREVEQRAAARQKRRARFENKRASAMEVDGPSLKIEGESSTDESDTETSAYKETRDSLLQCADKVFSDASEEYSQLSKVKARFERWKRDYSSTYRDAYMSLTVPSIFSPYVRLELLKWDPLHQDVDFFDMKWHGLLFDYGKPEDGDDFAPDDTDANLVPELVEKVAIPILHHQIVRCWDILSTRETRNAVAATSLVTNYVSASSEALAELFAAIRARLVEAIAAISVPTWDPLVLKAVPNTPQVAAYRFGTSVRLMRNICMWKDILALPVLENLALSDLLFGKVLPHVRSIASNIHDAVTRTERIVASLSGVWTGPSVTRTHSRPLQPLVDCTLTLRRILEKRLGSGLDDAETTGLARRLKRILVELHEHDHAREIVRTFNLKEAV

Tests used:
[1] = target: PRP43b-cYFP (Arabidopsis thaliana, UniProt O22899 1-729); experiment: split reporter
[2] = target: B1; experiment: split reporter

Chain of PRP43b-cYFP (O22899 whole entry): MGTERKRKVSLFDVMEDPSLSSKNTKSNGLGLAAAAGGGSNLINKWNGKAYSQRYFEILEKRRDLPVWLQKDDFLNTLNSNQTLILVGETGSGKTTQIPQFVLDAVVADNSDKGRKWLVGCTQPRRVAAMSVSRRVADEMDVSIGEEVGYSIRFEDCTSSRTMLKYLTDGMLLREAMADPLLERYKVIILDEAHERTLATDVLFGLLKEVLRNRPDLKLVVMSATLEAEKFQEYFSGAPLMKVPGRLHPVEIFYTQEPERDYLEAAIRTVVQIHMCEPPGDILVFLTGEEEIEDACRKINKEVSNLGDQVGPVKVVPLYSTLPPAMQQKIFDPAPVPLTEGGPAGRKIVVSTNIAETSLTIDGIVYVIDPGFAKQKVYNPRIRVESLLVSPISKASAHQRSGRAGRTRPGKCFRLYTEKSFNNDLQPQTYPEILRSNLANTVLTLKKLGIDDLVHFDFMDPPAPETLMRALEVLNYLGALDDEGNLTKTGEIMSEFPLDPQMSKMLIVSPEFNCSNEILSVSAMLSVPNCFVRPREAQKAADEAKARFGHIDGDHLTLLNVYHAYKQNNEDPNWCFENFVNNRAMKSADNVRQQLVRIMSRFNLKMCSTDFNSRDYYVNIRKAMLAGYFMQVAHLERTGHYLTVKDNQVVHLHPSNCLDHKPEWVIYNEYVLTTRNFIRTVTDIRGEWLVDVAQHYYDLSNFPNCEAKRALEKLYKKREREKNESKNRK

positive BiFC ratio (percent of protoplasts) [1] | positive BiFC ratio (percent of protoplasts) [2] | Binder
1.4% | – | B1
14.7% | 41.4% | NTR1 split-YFP fusion for BiFC (NTR1-nYFP) (natural protein) not shown

Source: article PMC6736097 (Nucleic Acids Research, 2019)
